Reference: the supplement of paper PMC10567573
± gives the standard deviation.

Test: protein stability index of a GFP-peptide fusion (GPS, HEK-293T) (PSI 1-6); higher = more stable
Conditions: c terminus: a fixed tail appended
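Also: 24-mer peptide tiles fused after GFP, lentivirally expressed, FACS-sorted into six equal bins by GFP/DsRed ratio, decoded by Illumina sequencing, PSI is the read-weighted mean bin number.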

Sequence	protein stability index (treatment: DMSO)	protein stability index (treatment: MLN4924 1 uM, 8 h)
YAPEAPYTSPDKLKDIFMFITRQL [PDS5B]	2.59 ± 0.28	1.97 ± 0.34
YCVPRGNRRRFRVRQPILQYRWDM [BEX1]	2.46 ± 0.21	2.55 ± 0.17
YDYVREFKRSTGTWHHTKPLLPSD [GAN]	3.2 ± 0.32	3.27 ± 0.21
YESGYAFLPDLLIFQMVIICLMCV [SMG5]	3.23 ± 0.32	3.16 ± 0.57
YGHPAGIDYKTTTILLDGRRVKLQ [RAB40B]	2.87 ± 0.28	3.14 ± 0.11
YKREILERVDGRRLVYKFGKNSSG [ELF3]	3.1 ± 0.22	3.21 ± 0.44
YKYCDHENAAFKDVALVLTVLLEE [TOR1AIP2]	2.5 ± 0.43	2.8 ± 0.52
YLKSCRRMKKNGMEMTRPTPPHLT [NOL4L]	2.89 ± 0.19	2.96 ± 0.25
YLTGTINGDPESVASLHWDGGALL [ADAMTS4]	2.88 ± 0.59	3.1 ± 0.32
YNALKLFMEMNQKLFDDCTQQFKA [PPP2R5C]	2.46 ± 0.22	2.2 ± 0.24
YQELLRVCCCELGVNPDQVEKIRK [ANKRD40]	2.41 ± 0.51	2.55 ± 0.22
YQLFEELGKGAFSVVRRCVKVLAG [CAMK2A]	2.9 ± 0.64	2.64 ± 0.39
YRDLAGGTGRSAKEQVLRKGTENL [FCHSD1]	4.16 ± 0.18	4.2 ± 0.33
YRHQRLHTGERPYECTVCKKRFTR [ZNF449]	2.75 ± 0.56	3.5 ± 0.53
YRIRQVNIYYYLEDDSMSVIEPVV [EFHC1]	2.87 ± 0.31	2.55 ± 0.55
YRKKSAEFPDFYDSEEPVSTHQEA [CHGB]	4.97 ± 0.12	5.01 ± 0.32
YSAAALQEAMKRLRGAKAFRLPGL [FCHO1]	2.3 ± 0.076	2.42 ± 0.2
YSECIVTVGGEERVSRKPTAAMRC [GAN]	3.56 ± 0.32	3.85 ± 0.66
YSIQERRPQLPQVLQHVRLPLLSP [KLHL20]	3.4 ± 0.18	3.42 ± 0.32
YTATEQEMQQQMSLGELCHPVPLS [TRIM14]	4.26 ± 0.23	4.14 ± 0.27
YTGMFTSSPDLDDMKLIILANRLC [RHOBTB2]	2.73 ± 0.51	2.7 ± 0.51
YTVRAPVGVAGLISPWNLPLYLLT [ALDH8A1]	2.49 ± 0.47	2.14 ± 0.07
YVFFVLAVMEHAESKMYATSPYSD [PTPRD]	3.02 ± 0.82	3.28 ± 0.78
YVQEKRDGLKRRQQLEEELLRAKI [RAD54B]	2.71 ± 0.66	3.38 ± 0.78
YWTKYYDFKNPIIEKYLRRQLTKP [OAS1]	1.94 ± 0.33	2.11 ± 0.19
YYLALLLSLLVMVISPVIQLQPTF [NSDHL]	2.68 ± 0.37	2.91 ± 0.64
YYVLEPRVVDGTPCSPDSSSVCVQ [ADAMTS4]	3.33 ± 0.35	3.21 ± 0.28
